Patent US20160195541A1
“And” between values parts separate entries of the source, which are not always exact repeats. Identical values can stand only once.

What was measured:
[1] = biological target: membrane-bound human FcγRIIB on Raji cells (human) (UniProt P31994); experiment: FACS on Raji cells, aggregated Beriglobin at 2.5 (µg/µL)
[2] = biological target: membrane-bound human FcγRIIB on Raji cells (human) (UniProt P31994); experiment: FACS on Raji cells, aggregated Beriglobin at 5.0 (µg/µL)
[3] = biological target: membrane-bound human FcγRIIB on Raji cells (human) (UniProt P31994); experiment: FACS on Raji cells (FACS021), constant aggregated IgG; no competitor (IMP series)
[4] = biological target: membrane-bound human FcγRIIB on Raji cells (human) (UniProt P31994); experiment: FACS on Raji cells (FACS007), constant aggregated IgG; competitor SM101 0.25 µg/µL
[5] = biological target: membrane-bound human FcγRIIB on Raji cells (human) (UniProt P31994); experiment: FACS on Raji cells (FACS007), constant aggregated IgG; competitor SM101 0.0078 µg/µL
[6] = biological target: membrane-bound human FcγRIIB on Raji cells (human) (UniProt P31994); experiment: FACS on Raji cells (FACS007), constant aggregated IgG; competitor SM101 0.0156 µg/µL
[7] = biological target: membrane-bound human FcγRIIB on Raji cells (human) (UniProt P31994); experiment: FACS on Raji cells (FACS021), constant aggregated IgG; competitor SM101 IMP 0.0625 µg/µL
[8] = biological target: membrane-bound human FcγRIIB on Raji cells (human) (UniProt P31994); experiment: FACS on Raji cells, aggregated Beriglobin at 5.0 (µg/µL); mean of three batches
[9] = biological target: membrane-bound human FcγRIIB on Raji cells (human) (UniProt P31994); experiment: FACS on Raji cells (FACS021), constant aggregated IgG; competitor SM101 Ref. Std. 0.125 µg/µL
[10] = biological target: membrane-bound human FcγRIIB on Raji cells (human) (UniProt P31994); experiment: FACS on Raji cells (FACS021), constant aggregated IgG; competitor SM101 Ref. Std. 0.0078 µg/µL
[11] = biological target: membrane-bound human FcγRIIB on Raji cells (human) (UniProt P31994); experiment: FACS on Raji cells (FACS021), constant aggregated IgG; competitor SM101 Ref. Std. 0.0156 µg/µL
[12] = biological target: membrane-bound human FcγRIIB on Raji cells (human) (UniProt P31994); experiment: FACS on Raji cells (FACS021), constant aggregated IgG; competitor SM101 Ref. Std. 0.0625 µg/µL
[13] = biological target: membrane-bound human FcγRIIB on Raji cells (human) (UniProt P31994); experiment: FACS: 0.1E6 Raji cells (FcγRIIB) with 2.5 µg aggregated Beriglobin at the stated pH; 1/200 anti-human IgG(H+L)-PE; secondary antibody alone in this panel 173
[14] = biological target: membrane-bound human FcγRIIB on Raji cells (human) (UniProt P31994); experiment: FACS: 0.1E6 Raji cells (FcγRIIB) with 2.5 µg aggregated Beriglobin at the stated pH; 1/200 anti-human IgG(H+L)-PE; drawn table, secondary antibody control not subtracted; pH 6.5
[15] = biological target: membrane-bound human FcγRIIB on Raji cells (human) (UniProt P31994); experiment: FACS: 0.1E6 Raji cells (FcγRIIB) with 2.5 µg aggregated Beriglobin at the stated pH; 1/200 anti-human IgG(H+L)-PE; drawn table, secondary antibody control not subtracted; pH 7.2

Sequence of UniProt P31994 (P31994 43-310): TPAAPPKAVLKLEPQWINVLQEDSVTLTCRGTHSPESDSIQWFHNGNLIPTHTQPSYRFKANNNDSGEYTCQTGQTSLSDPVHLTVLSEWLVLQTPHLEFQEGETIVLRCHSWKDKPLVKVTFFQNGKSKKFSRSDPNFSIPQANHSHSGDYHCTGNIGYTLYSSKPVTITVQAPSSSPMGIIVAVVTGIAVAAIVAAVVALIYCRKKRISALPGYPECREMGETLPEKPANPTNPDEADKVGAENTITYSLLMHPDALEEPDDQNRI

Median MFI [1]: 1350 and 1500 and 1000
Median MFI [2]: 1230 and 1140 and 960
Median Signal [3]: 6930
Median Signal [4]: 197
Median Signal [5]: 3010
Median Signal [6]: 2270
Median Signal [7]: 831
Median MFI (mean) [8]: 1110
Median Signal [9]: 362
Median Signal [10]: 5230
Median Signal [11]: 2330
Median Signal [12]: 921
Median MFI at pH 7.0 (left panel) [13]: 599
Median MFI at pH 7.8 (left panel) [13]: 363
Median MFI at pH 8.0 (left panel) [13]: 348
Median MFI at pH 6.5 [14]: 703
Median MFI at pH 7.2 [15]: 561
Substance: aggregated human IgG (aggregated Beriglobin, aggregated fraction isolated by size exclusion chromatography) (antibody)
